Laboratory results published in patent US7915395B2.
Values belong to the molecule of their own block, whether it stands above or below them.

Target: human CD3-ε (human) (UniProt P07766)
Sequence of UniProt P07766 (P07766 23-207): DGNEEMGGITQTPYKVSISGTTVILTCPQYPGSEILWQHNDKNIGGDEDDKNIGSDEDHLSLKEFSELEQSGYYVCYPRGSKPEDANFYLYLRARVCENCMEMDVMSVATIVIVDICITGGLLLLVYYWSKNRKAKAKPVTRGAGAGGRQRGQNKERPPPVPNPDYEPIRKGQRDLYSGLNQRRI

Proliferation (day 3, cpm × 10^-3), Purified T Cells + (2 µg/ml 9.3): 58.4 cpm × 10^-3
Molecule: G19-4 Fab

Proliferation (day 3, cpm × 10^-3), Purified T Cells + (0.5 ng/ml PMA): 83.6 cpm × 10^-3
Molecule: native anti-CD3 Mab G19-4 (antibody)

Proliferation (day 3, cpm × 10^-3), Purified T Cells + (0.5 ng/ml PMA): 65 cpm × 10^-3
B1: CD3 sFv (VL-VH, no tag) (scFv)
scFv: VDIQMTQTTSSLSASLGDRVTISCRASQDIRNYLNWYQQKPDGTVKLLIYYTSRLHSGVPSRFSGSGSGTDYSLTIANLQPEDIATYFCQQGNTLPWTFGGGTKLVTKRELGGGGSGGGGSGGGGSIDEVQLQQSGPELVKPGASMTMSCKASGYSFTGYIVNWLKQSHGKNLEWIGLINPWKGLTTYNQKFKGKATLTVDKSSSTAYMELLSLTSEDSAVYYCARSGYYGDSDWYFDVWGAGTTCTVSSFESDQSNSEEAKKEEAKKEEAKKSNSLESL
